Measured values taken from the nanobody polyreactivity screen of Harvey et al. (2022).

Experiment: yeast display, Sf9 membrane polyspecificity reagent, FACS + sequencing; frameworks hold sequencing errors
Procedure, shortened: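 Genes from sorted yeast were amplified by colony PCR, read by MiSeq 2 × 250 sequencing and filtered on CDR length. These cells carried a synthetic nanobody library in Saccharomyces cerevisiae BJ5465 and were sorted by FACS into low and high (top ~1%) gates on anti-HA and streptavidin fluorescence. Polyreactivity is labelled according to the gate of origin.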

Question: For “QVQLVESGGGLVQAGGSLRLSCAASGLIFYFNAMGWYRQAPGKERELVASITRTGSTNYADSVKGRFTISRDNAKNTVYLQMNSLKAEDTAVYYCAAYGPVYPHEYDYWGHGTQVTVSS”, which “polyreactivity (PSR sort gate)” value is on record?
Answer: low polyreactivity

Question: For “QVQLVESGGGLVQAGGSLRLSCAASGLIFYKNAMAWYRQAPGKERELVAAIDWSSGSTYYADSVKGRFTISRDNAKNTVYLQMNSLIPEDTAVYYCAAEYVHHASGDFRTLYYYWGQGTQVTVSS”, which “polyreactivity (PSR sort gate)” value is on record?
Answer: low polyreactivity

Question: Which “polyreactivity (PSR sort gate)” value does the source give for “QVQLVESGGGLVQAGGSLRLSCAASGLIFYPYAMGWYRQAPGKERELVAAITSDGSTYYADSVKGRFTISRDNAKNTVYLQMNSLKPEDTAVYYCAVVVAYFDDDYGLSWFYEYDYWGQGTQVTVSS” here?
Answer: low polyreactivity

Question: For “QVQLVESGGGLVQAGGSLRLSCAASGLIFYRNAMGWYRQAPGKERELVAAISVSGGSTYYADSVKGRFTISRDNAKNTVYLQMNSLKPEDTAVYYCAAKTWRSRGLEMDYWGQGTQVTVSS”, which “polyreactivity (PSR sort gate)” value is on record?
Answer: high polyreactivity

Question: Which “polyreactivity (PSR sort gate)” value does the source give for “QVQLVESGGGLVQAGGSLRLSCAASGLIFYRYAMGWYRQAPAKERELVADITRDSGSTSYADSVKGRFTISRDYAKNTVYLQMNSLKPEDTAVYYCNAGWVYTASGRQYYITYDYWGQGTQVTVSS” here?
Answer: high polyreactivity

Question: For “QVQLVESGGGLVQAGGSLRLSCAASGLIFYRYAMGWYRQAPGKERELVAAISSGGSTYYADSVKGRFTISRDNAKNTVYLQMNSLKPEDTAVYYCNAKVYGRRYDYWGQGTQVTVSS”, which “polyreactivity (PSR sort gate)” value is on record?
Answer: high polyreactivity

Question: For “QVQLVESGGGLVQAGGSLRLSCAASGLIFYSNAMGWYRQAPGKERELVAAISFNSGSTYYADSVKGRFTISRDNAKNTVYLQMNSLKPEDTAVYYCAKKRRFVVLSVQGDYWGQGTQVTVSS”, which “polyreactivity (PSR sort gate)” value is on record?
Answer: low polyreactivity

Question: For “QVQLVESGGGLVQAGGSLRLSCAASGLIFYSYTMGWYRQAPGKERELVAVISRSGTSTYYADSVKGRFTISRDNAKNTVYLQMNSLKPEDTAVYYCAALTRSGPYAYEYWGQGTQVTVSS”, which “polyreactivity (PSR sort gate)” value is on record?
Answer: high polyreactivity

Question: With “QVQLVESGGGLVQAGGSLRLSCAASGLIFYWNAMGWYRQAPGKERELVAGITSGGDTNYADSVKGRFTISRDNAKNTVYLQMNSLKPEDTAVYDCAAEGFRGYGYWGQGTQVTVSS” as the sequence, how does the “polyreactivity (PSR sort gate)” value read?
Answer: low polyreactivity

Question: With “QVQLVESGGGLVQAGGSLRLSCAASGLIFYWYAMGWYRQAPGKEREFVAAISYGGTTTSYADSVKGRFTISRDNAKNTVYLQMNSLKPEDTAVYYCAAEESTSSWSINDYWGQGTQVTVSS” as the sequence, how does the “polyreactivity (PSR sort gate)” value read?
Answer: low polyreactivity

Question: Which “polyreactivity (PSR sort gate)” value does the source give for “QVQLVESGGGLVQAGGSLRLSCAASGLIFYYYAMGWYRQAPGKERELVAAITRGGRTYYADSVKGRFTISRDNAKNTVYLQMNSLKPEDTAVYYCNTVSVKSGLDYWGQGTQVTVSS” here?
Answer: high polyreactivity

Question: For “QVQLVESGGGLVQAGGSLRLSCAASGLIFYYYVMGWYRQAPGKERELVARISTSGGSTYYADSVKGRFTISRDNAKNTVYLQMNSLKPEDTAVYYCAADHYGGRDYWGQGTQVTVSS”, which “polyreactivity (PSR sort gate)” value is on record?
Answer: low polyreactivity

Question: Which “polyreactivity (PSR sort gate)” value does the source give for “QVQLVESGGGLVQAGGSLRLSCAASGLIIPRYAMGWYRQAPGKERELVAAITYTGGSTYYADSVKGRFTISRDNAKNTVYLQMNSLKPEDTSVYYCAVVVGYTDSPYSYDYWGQGTQVTVSS” here?
Answer: low polyreactivity

Question: With “QVQLVESGGGLVQAGGSLRLSCAASGLIIVYNAIGWYRHAPGKERELVAGITSGGSTNYADSEKGRFTISRDNAKKTVYLQMNSLKPEDTAVYYCNAPVTGAGTYPPYDSWGQGTQVTVSS” as the sequence, how does the “polyreactivity (PSR sort gate)” value read?
Answer: high polyreactivity

Question: With “QVQLVESGGGLVQAGGSLRLSCAASGLILGRYAMGWYRQAPGKERELVAAITRGGRTYYADSVKGRFTISRDNAKNTVYLQMNSLKPEDPAVYYCAATFGYTRNDYDYWGHGTQVTVSS” as the sequence, how does the “polyreactivity (PSR sort gate)” value read?
Answer: high polyreactivity

Question: With “QVQLVESGGGLVQAGGSLRLSCAASGLILGVYSMGWYRQAPGKEREFVASINYGGGSTYYADSGKGRFTISRDNAKNTVYLQMNSLKPEDTAVYYCNARSRWGGTRLYSYDYWGQGTQVTVSS” as the sequence, how does the “polyreactivity (PSR sort gate)” value read?
Answer: low polyreactivity

Question: With “QVQLVESGGGLVQAGGSLRLSCAASGLILGYYAMGWYRQAPGKERELVAAITSSGTTTYYADSVKGRFTISRDNAKNTVYLQMNSLKPEDTAVYYWAALYIGKKRFNYWGQGTQVNVSS” as the sequence, how does the “polyreactivity (PSR sort gate)” value read?
Answer: high polyreactivity

Question: With “QVQLVESGGGLVQAGGSLRLSCAASGLILQYYVMGWYRQAPGKERELVAAITRSGGGTYYADSVKGRFTISRDNAKNTVYLQMNSLKPEDTAVYYCADRQPYRFHGSEYDYWGQGTQVNVSS” as the sequence, how does the “polyreactivity (PSR sort gate)” value read?
Answer: high polyreactivity

Question: For “QVQLVESGGGLVQAGGSLRLSCAASGLILRKYAMGWYRQAPGKEREFVAAITQTGSRSYYADSVKGRFTISRDNAKNTVYLQMNSLKPEDTAVYYCAARGTRAYRTYDYWGQGTQVTVSS”, which “polyreactivity (PSR sort gate)” value is on record?
Answer: high polyreactivity

Question: Which “polyreactivity (PSR sort gate)” value does the source give for “QVQLVESGGGLVQAGGSLRLSCAASGLILTRYAMGWYRQAPGKERELVAAITKNGGSTYYADSVKGRFTISRDNAKNTVYLLMNSLKPEDTAVYYCNVCPRRVDRSRAASSDYDYWGQGSQVTVSS” here?
Answer: high polyreactivity

Question: Which “polyreactivity (PSR sort gate)” value does the source give for “QVQLVESGGGLVQAGGSLRLSCAASGLILTWNAMGWYRQAPGKERELVAAISRSDGITYYADSVKGRFTISRDTAKNTVYIQMNSLKPEDTAVYYCAKDGVPKGRGGAYYEYDYWGQGTQVTVSS” here?
Answer: low polyreactivity

Question: With “QVQLVESGGGLVQAGGSLRLSCAASGLILVPNTMGWYRQAPGKERELVAAISYSGGGTYYADSVKGRFTISRDNAKNTVYLQMNSLKPEDTAVYYCAADFYQSHFYRPRYDYWGQGTQVTVSS” as the sequence, how does the “polyreactivity (PSR sort gate)” value read?
Answer: low polyreactivity

Question: With “QVQLVESGGGLVQAGGSLRLSCAASGLILYFNARGWYRQAPGKERELVADISSSGSSTYYADSVKGRFTISRDNAKNTVYLQMNSLKPEDTAVYYCAAGYYGEYWRSWYDYWGQGTQVTVSS” as the sequence, how does the “polyreactivity (PSR sort gate)” value read?
Answer: low polyreactivity

Question: With “QVQLVESGGGLVQAGGSLRLSCAASGLILYRYAMGWYRQAPGKERELVAAITTSGSSTFYADSVKGRFTISRDNAKNTVYLQMNSLKPEDTAVYYCAATRPRYGIYWYDYWGQGTQVTVSS” as the sequence, how does the “polyreactivity (PSR sort gate)” value read?
Answer: high polyreactivity

Question: With “QVQLVESGGGLVQAGGSLRLSCAASGLILYSYAMGWYRQAPGKERELVADISSGGITNYADSVKGRFTISRDNAKNTVYLQMNSLKPEDTAVYYCAADTRTSYYNDDYDYWGQGTQVTVSS” as the sequence, how does the “polyreactivity (PSR sort gate)” value read?
Answer: low polyreactivity

Question: With “QVQLVESGGGLVQAGGSLRLSCAASGLIMRTNVMGWYRQPPGKERELVAAINFRTGSTYYADSVKGRFTISRDHAKNTVYLQMNSLKPEDTAVYYCAKAERRHYDYWGQGTQVTVSS” as the sequence, how does the “polyreactivity (PSR sort gate)” value read?
Answer: low polyreactivity

Question: With “QVQLVESGGGLVQAGGSLRLSCAASGLISGDYAMGWYRQAPGKERELVARITSGDSTNYADSVKGRFTISRDNAKNTVYLQMNSLKPEDTAVYYCAAKRYVFQNDYWGQGTQVTVSS” as the sequence, how does the “polyreactivity (PSR sort gate)” value read?
Answer: low polyreactivity

Question: Which “polyreactivity (PSR sort gate)” value does the source give for “QVQLVESGGGLVQAGGSLRLSCAASGLNFARNAMGWYRQAPGKERELVASITSGGSTNYADSVKGRFTISRDNAKNTVYLQMNSLKPEDTAVYFCNKAYFFPYPRYRYEYWGQGTQVTVSS” here?
Answer: high polyreactivity

Question: With “QVQLVESGGGLVQAGGSLRLSCAASGLTFADYAMGWYRQAPGKERELVAAISRRGGSTYYADSVKGRFTISRDNAKNTVYLQMNSLKPEDTAVYYCAAGNRVNRFDYWGQGTQVTVSS” as the sequence, how does the “polyreactivity (PSR sort gate)” value read?
Answer: high polyreactivity

Question: Which “polyreactivity (PSR sort gate)” value does the source give for “QVQLVESGGGLVQAGGSLRLSCAASGLTFAFYAMGWYRQAPGKEREFVAAITTGGSTYYADSVKGRFTISRDNAKNTVYLQMNSLKPEDTAVYYCAADLYRRRGQFDYWGQGTQVTVSS” here?
Answer: high polyreactivity

Question: For “QVQLVESGGGLVQAGGSLRLSCAASGLTFAQNAMGWYRQAPGKERELVAAITRSGGRTYYADSVKGRFTISRDNSKNTVYFQMNSLKPEDTAVYYCAARVLQYSGYYYWGQGTQVTVSS”, which “polyreactivity (PSR sort gate)” value is on record?
Answer: high polyreactivity

Question: With “QVQLVESGGGLVQAGGSLRLSCAASGLTFARYAMGWYRQAPGKERELVAGISWSGGRTYYADSVKGRFTISRDNAKNTVYLQMNSLKPEDTAVYYCATTQFQRSGYYYWGQGTQVTVSS” as the sequence, how does the “polyreactivity (PSR sort gate)” value read?
Answer: high polyreactivity

Question: With “QVQLVESGGGLVQAGGSLRLSCAASGLTFAVYAMGWYRQAPGKERELVAAITYSGSRTYYADSVKGRFTISRDNAKNTVYLQMNSLKPEDTAVYYCNALYRRDIKFYYWGQGTQVTVSS” as the sequence, how does the “polyreactivity (PSR sort gate)” value read?
Answer: high polyreactivity

Question: For “QVQLVESGGGLVQAGGSLRLSCAASGLTFAYYAMGWYRQAPGKERELVAVISSAGSTYYADSVKGRFTISRDNAKNTVYLQMNSLNPEDTAVYYCAARAPSSISQTRGMYYWGQGTQVTVSS”, which “polyreactivity (PSR sort gate)” value is on record?
Answer: high polyreactivity

Question: Which “polyreactivity (PSR sort gate)” value does the source give for “QVQLVESGGGLVQAGGSLRLSCAASGLTFAYYVMGSYRQAPWKERELVAAISRRGGSTYYADSVKGRFTISRDNAKNTVYLQMNSLKPEDTAVYYCNTDWPLPNGGEPGYWGQGTQVTVSS” here?
Answer: high polyreactivity

Question: For “QVQLVESGGGLVQAGGSLRLSCAASGLTFDAYAMGWYRQAPGKERELDAAISSGGNTYYADSVKGRFTISRDNAKNTVYLQMNSLKPEDTAVYYCNAVGYYKYFFLAYEYDYWGQGTQVTVSS”, which “polyreactivity (PSR sort gate)” value is on record?
Answer: low polyreactivity

Question: Which “polyreactivity (PSR sort gate)” value does the source give for “QVQLVESGGGLVQAGGSLRLSCAASGLTFDNYAMGWYRQAPGKERELVAAISTSSGRTYYADSVKGRFTISRDNAKNTVYLQMNSLKPEDTAVYYCAAEVAFIYSYYEVYKYEYWGQGTQVTVSS” here?
Answer: high polyreactivity

Question: For “QVQLVESGGGLVQAGGSLRLSCAASGLTFDSYTMGWYRQAPGKERELVAAITNSGGSTYYADSVKGRFTISRDNAKNTVYLQMNSLKPEDTAVYYCAAFRTSRLYGGSYGYWGQGTQVTVSS”, which “polyreactivity (PSR sort gate)” value is on record?
Answer: high polyreactivity

Question: Which “polyreactivity (PSR sort gate)” value does the source give for “QVQLVESGGGLVQAGGSLRLSCAASGLTFEHNAMGWYRQAPGKEREFVAVISWRGTSTYYADSVKGRFTISRDNAKNTVYLQMNSLKPEATAVYYCAAGYRGVANRKWIYYYWGQGTQVTVSS” here?
Answer: high polyreactivity

Question: Which “polyreactivity (PSR sort gate)” value does the source give for “QVQLVESGGGLVQAGGSLRLSCAASGLTFERNAMGWYRQAPGKERELVAAISSGGSTYYADSVKGRFTISRDNAKNTVYLQMNSLKPEDTAVYYCAVYDWNSYFYRSWWSGFYYWGQGTQVTVSS” here?
Answer: low polyreactivity
